Data taken from IntAct's records for PubMed 20603001.

B1: Somatostatin receptor type 3 (Mus musculus), P30935 (parent)
chain: MATVTYPSSEPTTLDPGNASSTWPLDTTLGNTSAGASLTGLAVSGILISLVYLVVCVVGLLGNSLVIYVVLRHTSSPSVTSVYILNLALADELFMLGLPFLAAQNALSYWPFGSLMCRLVMAVDGINQFTSIFCLTVMSVDRYLAVVHPTRSARWRTAPVARTVSAAVWVASAVVVLPVVVFSGVPRGMSTCHMQWPEPAAAWRTAFIIYTAALGFFGPLLVICLCYLLIVVKVRSTTRRVRAPSCQWVQAPACQRRRRSERRVTRMVVAVVALFVLCWMPFYLLNIVNVVCPLPEEPAFFGLYFLVVALPYANSCANPILYGFLSYRFKQGFRRILLRPSRRIRSQEPGSGPPEKTEEEEDEEEEERREEEERRMQRGQEMNGRLSQIAQAGTSGQQPRPCTGTAKEQQLLPQEATAGDKASTLSHL
partner: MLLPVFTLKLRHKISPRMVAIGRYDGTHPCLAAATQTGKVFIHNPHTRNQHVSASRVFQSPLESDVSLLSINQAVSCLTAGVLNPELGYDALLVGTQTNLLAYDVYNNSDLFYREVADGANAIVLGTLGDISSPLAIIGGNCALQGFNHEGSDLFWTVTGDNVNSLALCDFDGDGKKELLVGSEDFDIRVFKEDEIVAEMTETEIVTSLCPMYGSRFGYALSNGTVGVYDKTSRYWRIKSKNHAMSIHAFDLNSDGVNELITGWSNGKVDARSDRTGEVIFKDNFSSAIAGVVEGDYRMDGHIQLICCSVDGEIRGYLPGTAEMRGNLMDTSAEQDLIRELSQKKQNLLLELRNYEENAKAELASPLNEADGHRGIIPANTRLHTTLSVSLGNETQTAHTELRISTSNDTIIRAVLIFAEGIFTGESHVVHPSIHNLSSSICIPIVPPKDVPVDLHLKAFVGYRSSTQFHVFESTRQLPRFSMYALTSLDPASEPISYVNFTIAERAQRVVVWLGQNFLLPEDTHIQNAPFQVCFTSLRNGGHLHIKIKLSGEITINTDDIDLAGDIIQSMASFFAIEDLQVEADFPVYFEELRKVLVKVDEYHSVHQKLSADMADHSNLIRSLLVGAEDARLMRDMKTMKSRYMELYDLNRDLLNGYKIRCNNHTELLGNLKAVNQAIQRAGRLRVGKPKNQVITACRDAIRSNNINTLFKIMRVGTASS
B2: ADP-ribosylation factor-like protein 6 (Homo sapiens), Q9H0F7 (parent)
chain: MGLLDRLSVLLGLKKKEVHVLCLGLDNSGKTTIINKLKPSNAQSQNILPTIGFSIEKFKSSSLSFTVFDMSGQGRYRNLWEHYYKEGQAIIFVIDSSDRLRMVVAKEELDTLLNHPDIKHRRIPILFFANKMDLRDAVTSVKVSQLLCLENIKDKPWHICASDAIKGEGLQEGVDWLQDQIQTVKT
partner: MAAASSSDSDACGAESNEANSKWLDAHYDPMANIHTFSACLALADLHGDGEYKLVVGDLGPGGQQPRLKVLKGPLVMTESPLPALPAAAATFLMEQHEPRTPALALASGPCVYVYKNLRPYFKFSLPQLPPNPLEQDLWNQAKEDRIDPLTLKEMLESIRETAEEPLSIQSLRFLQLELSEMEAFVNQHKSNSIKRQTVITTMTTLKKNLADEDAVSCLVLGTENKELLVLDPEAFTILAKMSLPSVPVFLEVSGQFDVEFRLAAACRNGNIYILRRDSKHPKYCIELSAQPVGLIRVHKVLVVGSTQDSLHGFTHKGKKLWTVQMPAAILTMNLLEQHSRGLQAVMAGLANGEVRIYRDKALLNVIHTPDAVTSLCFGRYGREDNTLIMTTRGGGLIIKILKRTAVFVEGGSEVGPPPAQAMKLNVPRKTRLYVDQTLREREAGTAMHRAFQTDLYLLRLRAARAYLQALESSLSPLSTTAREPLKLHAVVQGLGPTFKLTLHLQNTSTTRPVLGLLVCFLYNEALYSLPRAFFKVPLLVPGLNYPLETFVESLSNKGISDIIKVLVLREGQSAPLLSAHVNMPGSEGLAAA

Variants of: B1
Conditions: with bbs2_human BBS2, Q9BXC9

| effect of a mutation on the interaction | Variant |
| --- | --- |
| decreasing interaction | C246A;Q247A |
| increasing interaction | P244A;Q247A |
| increasing interaction | A243F;Q247F |
| disrupting interaction | C246A |
| increasing interaction | Q247A |

Variants of: B2
Conditions: with bbs1_human BBS1, Q8NFJ9

| effect of a mutation on the interaction | Variant |
| --- | --- |
| increasing interaction | Q73L |
